Patent publication US20180194862A1 (AbbVie / Abbott, published 2018)

How the values were obtained:
[1] = target: T1, soluble form of the extracellular domain of human CD40 (Creative BioMart) (human, UniProt P25942 21-193); assay: SPR, Ab captured
T1 construct: Bought
Protocol: (§1) CD40 binding kinetics was analyzed by surface plasmon resonance assay with a Biacore T200 instrument (Table 1-5). Briefly, a goat anti-mouse Fc antibody (Pierce) or goat anti-human Fc (Pierce) was immobilized on a CM5 sensor chip, followed by capture of the anti-CD40 antibodies on the test surface. Subsequently, the soluble form of the extracellular domain of human CD40 (Creative BioMart) or cynomolgus (cyno) CD40 (Creative BioMart) was injected, and the binding and dissociation were measured.

[2] = target: T2, soluble form of the extracellular domain of cynomolgus (cyno) CD40 (Creative BioMart) (cynomolgus, UniProt G7PG38 21-193); assay: SPR, Ab captured
T2 construct: extracellular domain; also called Cynomolgus CD40
Protocol: as §1

[3] = target: CD40 (binding assays of Example 4, Table 4-2); assay: antigen binding, format not stated
dog CD40 = target: T3, dog CD40 (dog, UniProt Q7YRL5 21-194, limits assumed); assay: FACS
T3 sequence (looked up): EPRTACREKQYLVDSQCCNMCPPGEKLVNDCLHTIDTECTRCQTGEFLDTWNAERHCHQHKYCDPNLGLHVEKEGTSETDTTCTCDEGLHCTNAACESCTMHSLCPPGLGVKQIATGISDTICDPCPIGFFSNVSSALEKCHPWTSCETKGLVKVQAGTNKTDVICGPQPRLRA

mouse CD40 = target: T4, mouse CD40 (mouse, UniProt P27512 20-193, limits assumed); assay: FACS
T4 construct: also called murine CD40
T4 sequence (looked up): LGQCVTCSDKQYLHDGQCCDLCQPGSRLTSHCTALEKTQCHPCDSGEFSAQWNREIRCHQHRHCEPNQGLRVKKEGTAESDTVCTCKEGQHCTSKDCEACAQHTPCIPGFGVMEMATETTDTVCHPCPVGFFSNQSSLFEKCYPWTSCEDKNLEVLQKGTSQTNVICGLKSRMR

[4] = target: human CD40 on cells (HEK293 stable transfectants, HEK-Blue CD40 cells, human B cells, monocytic cells, … (human, UniProt P25942 21-277)); assay: cell-based or functional assay
[5] = target: T5, mouse 4-1BB on HEK293 cells (mouse, UniProt P20334 24-256); assay: FACS, HEK293 mouse 4-1BB
T5 construct: whole, on cells
T5 sequence (looked up): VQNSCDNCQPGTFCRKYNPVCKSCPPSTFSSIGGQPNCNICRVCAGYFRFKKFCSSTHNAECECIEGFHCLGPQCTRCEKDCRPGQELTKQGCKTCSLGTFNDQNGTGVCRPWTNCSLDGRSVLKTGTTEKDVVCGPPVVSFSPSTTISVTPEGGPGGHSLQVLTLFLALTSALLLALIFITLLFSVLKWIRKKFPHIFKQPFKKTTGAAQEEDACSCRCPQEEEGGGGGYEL
Protocol: To determine species specificity and relative binding affinities of the test antibodies, cell lines were generated to exogenously express 4-1BB on the membrane. HEK293 cells were transfected with a plasmid expressing the human, cynomolgus, or mouse 4-1BB proteins. Stable, high expressing populations were sorted on the MoFlo sorter (Beckman) and maintained in DMEM, 10% fetal bovine serum, containing 500 μg/mL G418. For the assay, cells were dissociated with trypsin, resuspended at 5×10⁶ cells/mL and transferred to the 500 μL polypropylene plate (Nunc) at 50 μL/well (250,000 cells/well). […] Cells were washed twice with 250 μL/PBS (Hyclone) per well. PE-labelled detection antibodies were added at 1:250 dilution of stock, 50 μL/well, and incubated for 20 minutes at room temperature. The following detection antibodies were used: Goat anti-Rat IgG-PE (Southern Biotech), Goat anti-Mouse IgG-PE (Southern Biotech) or Goat anti-Human IgG-PE (Southern Biotech). Cells were washed once and fixed with PBS containing 1% Formaldehyde. Plate was analyzed for fluorescence on the FACSCalibur (Becton Dickinson).

human 4-1BB = target: T6, human 4-1BB (human, UniProt Q07011 24-186); assay: SPR (Biacore)
T6 construct: SPR (Biacore) analyte; also called hu4-1BB

T1 sequence (P25942 21-193 limits assumed): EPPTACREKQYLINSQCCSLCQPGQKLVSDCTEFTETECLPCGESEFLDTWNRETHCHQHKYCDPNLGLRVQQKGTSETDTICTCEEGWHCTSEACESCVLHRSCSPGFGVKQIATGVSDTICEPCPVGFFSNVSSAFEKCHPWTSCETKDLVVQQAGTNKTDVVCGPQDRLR
Sequence of CD40 (binding assays of Example 4, Table 4-2) (P25942 21-277): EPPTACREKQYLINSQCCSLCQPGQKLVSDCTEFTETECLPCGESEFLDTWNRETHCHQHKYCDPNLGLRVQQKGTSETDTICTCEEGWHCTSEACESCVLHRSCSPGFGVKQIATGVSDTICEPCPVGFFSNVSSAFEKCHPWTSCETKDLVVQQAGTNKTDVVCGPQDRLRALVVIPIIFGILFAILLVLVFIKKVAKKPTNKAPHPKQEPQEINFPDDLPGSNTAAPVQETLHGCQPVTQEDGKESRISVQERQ
Sequence of human CD40 on cells (HEK293 stable transfectants, HEK-Blue CD40 cells, human B cells, monocytic cells, … (P25942 21-277 limits assumed): as the sequence (P25942 21-277) above

B1: huAb8-1 (antibody, human IgG1, V domains shown)
VH: EVQLVQSGAEVKKPGSSVKVSCKASGYTFTDYYINWVRQAPGQGLEWIGWIFPGSGSVYCNEQFKGRATLTVDRSTSTAYMELSSLRSEDTAVYFCASSLGKFAYWGQGTLVTVSS
VL: DIQMTQSPSSLSASVGDRVTITCKASQSVVTAVAWYQQKPGKSPKLLIYSASNRYTGVPSRFSGSGSGTDFTLTISSLQPEDFATYFCQQYSSYPYTFGGGTKVEIK
notes: human IgG1, kappa
- Kd [1]: 3 nM
- koff [1]: 0.0023 s⁻¹
- kon [1]: 770000 M⁻¹ s⁻¹
- Kd [2]: 7.1 nM
- koff [2]: 0.0071 s⁻¹
- kon [2]: 1e+06 M⁻¹ s⁻¹
- EC50 [3]: 0.4 µg/mL
- binding result (dog CD40): no binding
- binding result (mouse CD40): no binding
- NF-κB activation EC50, HEK293 CD40 NFκB reporter cells [4]: 0.14 µg/mL

B2: hu106-1 mIgG1 (antibody, V domains shown)
VH: EVQLVQSGAEVKKPGSSVKVSCKASGYTFTSYYIYWVRQAPGQGLEWIGNIWPGNGGTFYGEKFMGRATFTADTSTSTAYMELSSLRSEDTAVYYCARRPDYSGDDYFDYWGQGTLVTVSS
VL: NVMLTQPHSVSESPGKTVTISCKLNSGNIGSYYVHWYQQRPGSSPTTMIYRDDKRPDGVPDRFSGSIDSSSNSASLTISGLKTEDEADYYCHSYDSTITPVFGGGTKLTVL
notes: also called hu106-1 with the muIgG1 constant region
- EC50 [5]: 0.69 nM

B3: hu106-1 T252M mIgG1 (antibody, V domains shown)
VH: EVQLVQSGAEVKKPGSSVKVSCKASGYTFTSYYIYWVRQAPGQGLEWIGNIWPGNGGTFYGEKFMGRATFTADTSTSTAYMELSSLRSEDTAVYYCARRPDYSGDDYFDYWGQGTLVTVSS
VL: NVMLTQPHSVSESPGKTVTISCKLNSGNIGSYYVHWYQQRPGSSPTTMIYRDDKRPDGVPDRFSGSIDSSSNSASLTISGLKTEDEADYYCHSYDSTITPVFGGGTKLTVL
notes: also called hu106-1 mIgG1 T252M
- EC50 [5]: 0.95 nM

B4: Hu106mPSMA-3 (bispecific antibody)
chain: EVQLVQSGAEVKKPGSSVKVSCKASGYTFTSYYIYWVRQAPGQGLEWIGNIWPGNGGTFYGEKFMGRATFTADTSTSTAYMELSSLRSEDTAVYYCARRPDYSGDDYFDYWGQGTLVTVSSGGGGSGGGGSGGGGSGGGGSGGGGSGGGGSNVMLTQPHSVSESPGKTVTISCKLNSGNIGSYYVHWYQQRPGSSPTTMIYRDDKRPDGVPDRFSGSIDSSSNSASLTISGLKTEDEADYYCHSYDSTITPVFGGGTKLTVLGQVPRDSGCKPCICTVPEVSSVFIFPPKPKDVLMITLTPKVTCVVVDISKDDPEVQFSWFVDDVEVHTAQTQPREEQFNSTFRSVSELPIMHQDWLNGKEFKCRVNSAAFPAPIEKTISKTKGRPKAPQVYTIPPPKEQMAKDKVSLTCMITDFFPEDITVEWQWNGQPAENYKNTQPIMDTDGSYFVYSKLNVQKSNWEAGNTFTCSVLHEGLHNHHTEKSLSHSPGKGGGGSGGGSGGGSGGGGSEVKLVESEGGLVQPGSSMKLSCTASGFTFSDYYMAWVRQVPEKGLEWVANINYDGTTTYYLDSLKSRFIISRDNSKNILYLQMSSLKSEDTATYYCARVLDGYYGYFDYWGQGTTLSVSSGGGGSGGGGSGGGGSGGGGSGGGGSGGGGSQIVLTQSPAIMSASPGEKVTISCSASSSVSYMYWYQQKPGSSPKPWIYRTYNLASGVPARFSGSGSGTSYSLTISSMEAEDAATYYCQQSHTYPPTFGGGTKLEIKR
notes: contains T252M
- EC50 [5]: 1.1 nM

B5: Hu106mPSMA-4 (bispecific antibody)
chain: EVQLVQSGAEVKKPGSSVKVSCKASGYTFTSYYIYWVRQAPGQGLEWIGNIWPGNGGTFYGEKFMGRATFTADTSTSTAYMELSSLRSEDTAVYYCARRPDYSGDDYFDYWGQGTLVTVSSGGGGSGGGGSGGGGSGGGGSGGGGSGGGGSNVMLTQPHSVSESPGKTVTISCKLNSGNIGSYYVHWYQQRPGSSPTTMIYRDDKRPDGVPDRFSGSIDSSSNSASLTISGLKTEDEADYYCHSYDSTITPVFGGGTKLTVLGQVPRDSGCKPCICTVPEVSSVFIFPPKPKDVLMITLTPKVTCVVVDISKDDPEVQFSWFVDDVEVHTAQTQPREEQFASTFRSVSELPIMHQDWLNGKEFKCRVNSAAFPAPIEKTISKTKGRPKAPQVYTIPPPKEQMAKDKVSLTCMITDFFPEDITVEWQWNGQPAENYKNTQPIMDTDGSYFVYSKLNVQKSNWEAGNTFTCSVLHEGLHNHHTEKSLSHSPGKGGGGSGGGSGGGSGGGGSEVKLVESEGGLVQPGSSMKLSCTASGFTFSDYYMAWVRQVPEKGLEWVANINYDGTTTYYLDSLKSRFIISRDNSKNILYLQMSSLKSEDTATYYCARVLDGYYGYFDYWGQGTTLSVSSGGGGSGGGGSGGGGSGGGGSGGGGSGGGGSQIVLTQSPAIMSASPGEKVTISCSASSSVSYMYWYQQKPGSSPKPWIYRTYNLASGVPARFSGSGSGTSYSLTISSMEAEDAATYYCQQSHTYPPTFGGGTKLEIKR
notes: contains T252M and N297A
- EC50 [5]: 1 nM

B6: huAb9-5 (antibody, human IgG1, kappa)
heavy: not shown
light: DAVMTQTPLSLSVTPGQPASISCRSSQSLENTNGNTFLNWYLQKPGQSPQLLIYRVSNRFSGVPDRFSGSGSGTDFTLKISRVEAEDVGVYYCLQVTHVPFTFGQGTKLEIKRTVAAPSVFIFPPSDEQLKSGTASVVCLLNNFYPREAKVQWKVDNALQSGNSQESVTEQDSKDSTYSLSSTLTLSKADYEKHKVYACEVTHQGLSSPVTKSFNRGEC
notes: human IgG1, kappa
- Kd [1]: 15 nM
- koff [1]: 0.026 s⁻¹
- kon [1]: 1.7e+06 M⁻¹ s⁻¹
- Kd [2]: 13 nM
- koff [2]: 0.024 s⁻¹
- kon [2]: 1.8e+06 M⁻¹ s⁻¹
- EC50 [3]: 0.2 µg/mL
- binding result (dog CD40): no binding
- binding result (mouse CD40): no binding
- NF-κB activation EC50, HEK293 CD40 NFκB reporter cells [4]: 1.13 µg/mL

B7: TABBY5-mIgG2b (antibody, V domains shown)
VH: EVQLQQSGAELVRPGASVKLSCTASGFNIKDYYMHWVKQRPEQGLEWIGRIDPEDGDTEYVPKFQGKATMTADTSSNTAYLQLSSLTSEDTAVYYCTPYSNYVYWYFDVWGTGTTVTVSS
VL: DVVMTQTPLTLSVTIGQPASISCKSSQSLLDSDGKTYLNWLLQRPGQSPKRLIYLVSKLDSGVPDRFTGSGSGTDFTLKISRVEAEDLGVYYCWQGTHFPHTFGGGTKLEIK
notes: mouse IgG2b
- Kd (human 4-1BB): 0.3 nM

B8: TABBY6-mIgG1 (antibody, V domains shown)
VH: EVQLQQSGAELVRPGASVKLSCTASGFNIKDYYMHWVKQRPEQGLEWIGRIDPEDGDTEYAPKFQGKATMTADTSSNTAYLQLSTLTSEDTAVYYCTPYSNYVYWYFDVWGTGTTVTVSS
VL: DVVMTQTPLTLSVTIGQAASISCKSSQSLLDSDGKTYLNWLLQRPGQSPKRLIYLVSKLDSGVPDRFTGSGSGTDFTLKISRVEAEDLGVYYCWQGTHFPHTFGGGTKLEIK
notes: mouse IgG1
- Kd (human 4-1BB): 1.9 nM

B9: TABBY10-mIgG1 (antibody, V domains shown)
VH: QIQLVQSGPELKKPGETVKISCKASGYTFTTYGMSWVKQAPGKGLKWMGWINTYSGVPTYADDFKGRFAFSLETSASTAYLQINNLKNEDTATYFCARGNDGNYYGWFAHWGQGTLVTVSA
VL: DIQMTQSPSSLSASLGGKVTITCKASQDIHNYISWYQHKPGKGPRLVIHYTSTLQPGIPSRFSGSGSGRDYSFSISNLEPEDIATYYCLQYDNLYTFGGGTKLEIK
notes: mouse IgG1
- Kd (human 4-1BB): 3.1 nM
